This assay has as its target biotinylated peptide comprising the NH2-terminal 73 amino acids of GM130 (N73pep) (UniProt Q62839). Put plainly: pull-down.

B1: p115, vesicle tethering protein (natural protein)
chain: MNFLRGVMGGQSAGPQHTEAETIQKLCDRVASSTLLDDRRNAVRALKSLSKKYRLEVGIQAMEHLIHVLQTDRSDSEIIAYALDTLYNIISNDEEEEVEENSTRQSEDLGSQFTEIFIKQPENVTLLLSLLEEFDFHVRWPGVRLLTSLLKQLGPPVQQIILVSPMGVSKLMDLLADSREIIRNDGVLLLQALTRSNGAIQKIVAFENAFERLLDIITEEGNSDGGIVVEDCLILLQNLLKNNNSNQNFFKEGSYIQRMKAWFEVGDENPGWSAQKVTNLHLMLQLVRVLVSPTNPPGATSSCQKAMFQCGLLQQLCTILMATGIPADILTETINTVSEVIRGCQVNQDYFASVNAPSNPPRPAIVVLLMSMVNERQPFVLRCAVLYCFQCFLYKNEKGQGEIVATLLPSTIDATGNSVSAGQLLCGGLFSTDSLSNWCAAVALAHALQGNATQKEQLLRVQLATSIGNPPVSLLQQCTNILSQGSKIQTRVGLLMLLCTWLSNCPIAVTHFLHNSANVPFLTGQIAENLGEEEQLVQGLCALLLGISIYFNDNSLENYTKEKLKQLIEKRIGKENYIEKLGFISKHELYSRASQKPQPNFPSPEYMIFDHEFTKLVKELEGVITKAIYKSSEEDKKEEEVKKTLEQHDNIVTHYKNMIREQDLQLEELKQQVSTLKCQNEQLQTAVTQQASQIQQHKDQYNLLKVQLGKDNHHQGSHSDGAQVNGIQPEEISRLREEIEELRSHQVLLQSQLAEKDTVIENLRSSQVSGMSEQALATCSPRDAEQVAELKQELSALKSQLCSQSLEITRLQTENSELQQRAETLAKSVPVEGESELVTAAKTTDVEGRLSALLQETKELKNEIKALSEERTAIQKQLDSSNSTIAILQTEKDKLYLEVTDSKKEQDDLLVLLADQDQKILSLKSKLKDLGHPVEEEDESGDQEDDDDELDDGDRDQDI
With B1, the percent of p115 depleted from cytosol was over 95%.

(Values after article PMC2199741.)
